# Assay results: article PMC3561323 (PLoS ONE, 2013)
# Target: integrin linked kinase (ILK), full-length human (human, UniProt Q13418 1-452)
# Experiment: SEC; purified IPPmin complex on a calibrated gel-filtration column (Superdex 200 10/300 GL); 20 mM Tris pH 7.5, 150 mM NaCl, 1 mM DTT
# Conditions: both partners purified
# Chain of integrin linked kinase (ILK), full-length human (Q13418 whole entry): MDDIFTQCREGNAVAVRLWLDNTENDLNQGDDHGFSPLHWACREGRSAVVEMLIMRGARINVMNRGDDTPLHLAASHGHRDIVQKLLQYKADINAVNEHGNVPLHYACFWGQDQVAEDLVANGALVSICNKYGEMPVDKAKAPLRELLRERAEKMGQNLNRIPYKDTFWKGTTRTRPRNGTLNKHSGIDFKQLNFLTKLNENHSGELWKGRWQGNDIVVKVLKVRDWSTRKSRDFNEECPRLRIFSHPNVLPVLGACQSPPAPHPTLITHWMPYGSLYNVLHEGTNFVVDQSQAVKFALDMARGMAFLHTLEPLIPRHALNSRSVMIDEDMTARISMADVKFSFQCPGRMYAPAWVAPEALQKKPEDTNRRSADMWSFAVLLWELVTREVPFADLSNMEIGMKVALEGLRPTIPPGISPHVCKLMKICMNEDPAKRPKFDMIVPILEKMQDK
binder,measurement,value
"LIM1 domain of PINCH1 (domain or fragment, human, UniProt P48059 6-68, looked up) ASATCERCKGGFAPAEKIVNSNGELYHEQCFVCAQCFQQFPEGLFYEFEGRKYCEHDFQMLFA",binding result,binds
